Experimental data as given in article doi:10.1101/2022.05.07.491029.

Experiments:
[1] = molecular target: HSV-1 gB-Sm (herpes simplex virus 1 (strain KOS)) (UniProt P06437); experiment: split reporter
[2] = molecular target: HSV-1 gD-Sm (herpes simplex virus 1 (strain KOS)) (UniProt Q69091); experiment: split reporter
Sequence of UniProt Q69091 (Q69091 26-394): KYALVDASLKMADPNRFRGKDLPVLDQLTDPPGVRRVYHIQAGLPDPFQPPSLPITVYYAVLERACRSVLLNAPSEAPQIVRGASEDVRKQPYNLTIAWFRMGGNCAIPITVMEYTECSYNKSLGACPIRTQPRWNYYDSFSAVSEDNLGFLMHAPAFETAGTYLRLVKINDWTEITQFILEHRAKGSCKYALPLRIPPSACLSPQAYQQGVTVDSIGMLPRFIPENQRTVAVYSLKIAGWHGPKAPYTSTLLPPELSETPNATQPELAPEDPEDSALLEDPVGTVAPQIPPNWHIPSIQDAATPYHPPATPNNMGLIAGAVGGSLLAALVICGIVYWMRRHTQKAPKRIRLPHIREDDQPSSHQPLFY

Substance “HSV-1 gH-Lg expressed without gL (from UniProt P06477 19-838) (natural protein)” has a fold reduction of the NanoBiT interaction in the absence of gL against gH/gL [1] of 2 fold and a fold reduction of the NanoBiT interaction in the absence of gL against gH/gL [2] of 6 fold.
